Biological target: Aspergillus terreus LovB: Lovastatin nonaketide synthase

B1: Aspergillus terreus LovG: Esterase (protein)
chain: HHHHHHMRYQASPALAKAPRALLCIHGAGCSPAIFRVQLSKLRAALREDFEFVYVTAPFPSSAGPGILPVFADLGPYYSWFESSSGNNNNGPSVGERLAAVHDPIRRTIVDWQTQHPHIPIVGAIGFSEGALVTTLLLWQQQMGRLPWLPRMSVAMLICPWYQDEASQYMRNEVMENHDDDHDSKDTEWQEELVIRIPTLHLQGRDDFALAGSKMLVARHFSPREAQVLEFAGQHQFPNRPRDVLEVINRFRKLCVTVQTLE
  offloaded aberrant products 8-10 from LovB in vitro in the absence of LovC (HPLC at 330 nm, LC-MS): Upon addition of LovG at equimolar concentration to LovB, the in vitro assay mixture turned significantly more yellow and the extract contained high amounts of offloaded products 8-10, in addition to 6 and 7
  turnover rate of dihydromonacolin L acid (2), in vitro with equimolar (10 µM) LovB, LovC and LovG: the turnover rate of dihydromonacolin L acid (2) was estimated to be ˜0.12 hour^-1

Reference: patent US20150315621
